Results from the supplement of paper PMC10126150.
± gives the standard deviation of the averaged measurements.

test system: ATP; assay: switch fluorescence ratio, 500 uM ATP over buffer (Cy3 cluster intensity, sum of 5 cycles each) (fold (ratio)); higher = stronger signal-on switching upon ATP binding; sequences stand for … in TCGTCGGCAGCGTCAGATGTGTATAAGAGACAGTTTTTTTTTTTTTTTTTTTTTTTTT…TC; details: aptamer strand: ATP DNA aptamer (quencher-CACCTGGGGGAGTATTGCGGAGGAAGG + anchor), 100 nM annealed; ATP concentration: 500 uM
How it was run: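 Cy3-labelled switching-strand clusters on a modified Illumina MiSeq flow-cell were annealed to 100 nM quencher-labelled ATP aptamer, imaged in selection buffer, then imaged after 15 min with 500 uM ATP at 22 °C. Five buffer/ATP cycles ran, with NaOH stripping and re-annealing between them. The fluorescence ratio is summed target-cycle over summed buffer-cycle Cy3 intensity per cluster, averaged per switch-domain sequence. Clusters outside 100-1000 RFU were excluded.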
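Also: ATP exposure 15 min at 22 °C before imaging.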

Row | Sequence | switch fluorescence ratio
1 | TCAATATTGG | 1.008 ± 0.0098
2 | TCAATCCTTG | 0.999 ± 0.035
3 | TCAATGCATG | 0.983 ± 0.035
4 | TCAATGGTTT | 1.12 ± 0.21
5 | TCAATTGGGA | 0.983 ± 0.055
6 | TCAATTTGGC | 1.02 ± 0.039
7 | TCAATTTGGG | 0.971 ± 0.022
8 | TCACAATGCG | 1.06 ± 0.064
9 | TCACAGCCG | 1.046 ± 0.0085
10 | TCACAGTAAT | 1.13 ± 0.063
11 | TCACAGTTAG | 0.998 ± 0.046
12 | TCACCAGGTA | 2.163 ± 0.021
13 | TCACCATATT | 1.05 ± 0.02
14 | TCACGCTTCA | 1.12 ± 0.033
15 | TCACGCTTTT | 1.11 ± 0.12
16 | TCACGTTCAA | 1.06 ± 0.022
17 | TCACGTTTAG | 1.03 ± 0.011
18 | TCACTCGAAG | 1.01 ± 0.0067
19 | TCAGAATCGT | 0.988 ± 0.026
20 | TCAGAATGCG | 0.991 ± 0.045
21 | TCAGAATTCA | 1.01 ± 0.012
22 | TCAGACTGTT | 1.01 ± 0.013
23 | TCAGAGGCGT | 0.9964 ± 0.0056
24 | TCAGAGGGCA | 1 ± 0.053
25 | TCAGATTGTT | 0.9623 ± 0.0028

Row | Sequence | switch fluorescence ratio
26 | TCAGATTTGG | 0.9901 ± 0.006
27 | TCAGCGGGGG | 1.11 ± 0.16
28 | TCAGCGGTTT | 0.96 ± 0.055
29 | TCAGGACGGC | 0.99 ± 0.044
30 | TCAGGAGTCG | 1.02 ± 0.06
31 | TCAGGCTAAC | 1.01 ± 0.011
32 | TCAGGCTAGC | 1.07 ± 0.026
33 | TCAGGCTAGG | 1.02 ± 0.028
34 | TCAGGCTGTT | 0.968 ± 0.04
35 | TCAGGGACGA | 1.02 ± 0.055
36 | TCAGGGAGGG | 1.06 ± 0.15
37 | TCAGGGAGTG | 0.9758 ± 0.0095
38 | TCAGGGCGTG | 1 ± 0.026
39 | TCAGGGGAAG | 0.999 ± 0.015
40 | TCAGGGGCTG | 0.974 ± 0.043
41 | TCAGGGGGCT | 1.03 ± 0.088
42 | TCAGGGGGGT | 1.11 ± 0.3
43 | TCAGGGGTCG | 1.05 ± 0.056
44 | TCAGGGGTGG | 1 ± 0.058
45 | TCAGGGTGAA | 1.02 ± 0.041
46 | TCAGGGTTGG | 0.978 ± 0.024
47 | TCAGGGTTTT | 1.01 ± 0.018
48 | TCAGGTGGGT | 1.22 ± 0.22
49 | TCAGTAATTT | 1.03 ± 0.032
50 | TCAGTACATG | 0.992 ± 0.02

Row | Sequence | switch fluorescence ratio
51 | TCAGTCAGCT | 1 ± 0.039
52 | TCAGTCCGGA | 1.02 ± 0.024
53 | TCAGTGACGT | 0.9827 ± 0.0096
54 | TCAGTGCCAG | 0.992 ± 0.022
55 | TCAGTTAATT | 1.008 ± 0.0099
56 | TCAGTTGGTT | 0.977 ± 0.064
57 | TCAGTTGTAT | 0.979 ± 0.011
58 | TCAGTTTAGC | 1.01 ± 0.016
59 | TCAGTTTGGT | 0.99 ± 0.017
60 | TCATAAAGGG | 1.03 ± 0.0064
61 | TCATAAGGGA | 0.997 ± 0.028
62 | TCATAAGTTG | 0.9957 ± 0.0042
63 | TCATACCATT | 1 ± 0.024
64 | TCATAGAGTA | 1.02 ± 0.018
65 | TCATAGGATT | 0.995 ± 0.04
66 | TCATAGGTTT | 0.974 ± 0.038
67 | TCATAGTCGG | 1 ± 0.024
68 | TCATATGGTG | 1.03 ± 0.038
69 | TCATCGTCT | 1.01 ± 0.023
70 | TCATCTTTTT | 0.9477 ± 0.0022
71 | TCATGAACTT | 1.07 ± 0.078
72 | TCATGATAGT | 0.9825 ± 0.0081
73 | TCATGCCAAC | 1.03 ± 0.011
74 | TCATGCCGGG | 1.04 ± 0.014
75 | TCATGCTGAG | 0.98 ± 0.0077

Row | Sequence | switch fluorescence ratio
76 | TCATGGAGTA | 0.981 ± 0.08
77 | TCATGGATAG | 1.006 ± 0.002
78 | TCATGGCGGT | 1.01 ± 0.014
79 | TCATGGGGGA | 1.03 ± 0.046
80 | TCATGGGGTT | 1.006 ± 0.0065
81 | TCATGTATTG | 1.01 ± 0.037
82 | TCATTAATTT | 0.9873 ± 0.0086
83 | TCATTCAACT | 1 ± 0.013
84 | TCATTCAAGT | 1.04 ± 0.011
85 | TCATTCCATT | 0.988 ± 0.031
86 | TCATTCGCAG | 3.73 ± 0.77
87 | TCATTCGTCC | 1.099 ± 0.0056
88 | TCATTGGGG | 0.974 ± 0.029
89 | TCATTTAAGG | 0.987 ± 0.02
90 | TCATTTATTG | 1.02 ± 0.024
91 | TCATTTTTTT | 0.997 ± 0.036
92 | TCCAACGTAT | 1.493 ± 0.0064
93 | TCCAAGGGAT | 1.01 ± 0.012
94 | TCCAAGGGGT | 1.06 ± 0.044
95 | TCCAAGTCCC | 1.018 ± 0.0088
96 | TCCAATCGGT | 0.973 ± 0.019
97 | TCCAATCTCT | 1.06 ± 0.02
98 | TCCAATTGGA | 0.9855 ± 0.0021
99 | TCCAATTGGG | 1.11 ± 0.09
100 | TCCACTCTTC | 0.991 ± 0.024
